# Measured values as given in patent publication US20130058934A1 (Novartis, published 2013).
# Changes are numbered by the printed parent chain. In names and notes the source's numbering stands.
# T1: LRP6-Fc (R&D Systems, catalog No: 1505-LR) (human, UniProt O75581 20-1370)
# T1 construct: Purchased reagent; also called LRP6 protein; 360 KD homodimer antigen LRP6-Fc; not shown: Fc part of the purchased fusion
# T1 sequence (looked up): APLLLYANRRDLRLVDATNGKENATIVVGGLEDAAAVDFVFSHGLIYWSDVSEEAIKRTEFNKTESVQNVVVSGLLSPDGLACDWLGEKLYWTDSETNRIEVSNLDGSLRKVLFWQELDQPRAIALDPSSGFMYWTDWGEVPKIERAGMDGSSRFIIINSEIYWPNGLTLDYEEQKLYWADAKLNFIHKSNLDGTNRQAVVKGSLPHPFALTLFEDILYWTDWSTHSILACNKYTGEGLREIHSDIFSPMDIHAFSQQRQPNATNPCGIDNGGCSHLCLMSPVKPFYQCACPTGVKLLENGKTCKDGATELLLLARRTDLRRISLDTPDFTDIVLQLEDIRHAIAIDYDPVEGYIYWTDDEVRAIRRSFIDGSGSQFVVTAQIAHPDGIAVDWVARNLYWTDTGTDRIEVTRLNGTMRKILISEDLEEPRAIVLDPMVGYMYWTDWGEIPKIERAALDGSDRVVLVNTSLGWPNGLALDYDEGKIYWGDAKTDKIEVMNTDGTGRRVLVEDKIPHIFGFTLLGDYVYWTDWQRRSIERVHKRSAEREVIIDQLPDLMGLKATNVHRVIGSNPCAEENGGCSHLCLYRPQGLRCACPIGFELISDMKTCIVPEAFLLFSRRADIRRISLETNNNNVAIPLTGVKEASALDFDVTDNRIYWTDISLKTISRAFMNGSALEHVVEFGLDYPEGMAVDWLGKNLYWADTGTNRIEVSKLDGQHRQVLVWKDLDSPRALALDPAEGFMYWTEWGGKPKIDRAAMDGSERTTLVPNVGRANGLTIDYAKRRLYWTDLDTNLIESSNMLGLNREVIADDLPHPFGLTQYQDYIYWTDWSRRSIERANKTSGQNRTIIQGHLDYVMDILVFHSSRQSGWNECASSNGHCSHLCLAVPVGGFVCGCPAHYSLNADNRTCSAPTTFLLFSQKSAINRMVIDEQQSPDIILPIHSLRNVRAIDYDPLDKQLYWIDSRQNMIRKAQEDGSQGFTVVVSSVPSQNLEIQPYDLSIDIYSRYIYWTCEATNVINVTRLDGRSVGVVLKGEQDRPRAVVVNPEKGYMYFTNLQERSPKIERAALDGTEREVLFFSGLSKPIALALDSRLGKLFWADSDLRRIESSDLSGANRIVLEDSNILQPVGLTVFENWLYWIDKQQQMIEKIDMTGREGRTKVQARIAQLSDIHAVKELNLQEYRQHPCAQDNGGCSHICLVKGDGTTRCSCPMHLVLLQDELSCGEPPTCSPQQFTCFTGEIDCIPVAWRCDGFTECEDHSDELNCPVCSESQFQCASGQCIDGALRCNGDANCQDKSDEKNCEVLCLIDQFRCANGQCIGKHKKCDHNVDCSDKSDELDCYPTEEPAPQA
# T2: LRP6 PD1/2 (human, UniProt O75581 19-629)
# T2 construct: range 19-629; Recombinant soluble fragment; also called Propeller Domains 1-2 of LRP6; recombinant LRP6 PD1/2
# T2 sequence (looked up): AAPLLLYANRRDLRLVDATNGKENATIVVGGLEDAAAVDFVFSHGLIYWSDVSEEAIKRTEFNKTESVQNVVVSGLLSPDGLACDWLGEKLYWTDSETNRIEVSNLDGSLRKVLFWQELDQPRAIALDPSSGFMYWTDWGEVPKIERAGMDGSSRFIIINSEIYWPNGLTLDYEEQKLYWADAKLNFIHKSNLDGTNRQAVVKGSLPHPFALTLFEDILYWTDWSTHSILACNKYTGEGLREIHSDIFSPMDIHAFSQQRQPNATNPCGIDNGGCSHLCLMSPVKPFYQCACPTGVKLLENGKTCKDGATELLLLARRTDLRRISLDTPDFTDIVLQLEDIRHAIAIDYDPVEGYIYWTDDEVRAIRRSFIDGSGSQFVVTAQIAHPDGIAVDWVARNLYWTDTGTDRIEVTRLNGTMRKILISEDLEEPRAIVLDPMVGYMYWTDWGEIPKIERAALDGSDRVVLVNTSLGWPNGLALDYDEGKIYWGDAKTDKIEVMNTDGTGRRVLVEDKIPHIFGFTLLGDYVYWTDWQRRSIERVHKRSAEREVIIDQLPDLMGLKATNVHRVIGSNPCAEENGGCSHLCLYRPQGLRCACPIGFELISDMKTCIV
# T3: LRP6 PD3/4 (human, UniProt O75581 631-1246)
# T3 construct: range 631-1246; Recombinant soluble fragment; also called Propeller Domains 3-4 of LRP6; recombinant LRP6 PD3/4
# T3 sequence (looked up): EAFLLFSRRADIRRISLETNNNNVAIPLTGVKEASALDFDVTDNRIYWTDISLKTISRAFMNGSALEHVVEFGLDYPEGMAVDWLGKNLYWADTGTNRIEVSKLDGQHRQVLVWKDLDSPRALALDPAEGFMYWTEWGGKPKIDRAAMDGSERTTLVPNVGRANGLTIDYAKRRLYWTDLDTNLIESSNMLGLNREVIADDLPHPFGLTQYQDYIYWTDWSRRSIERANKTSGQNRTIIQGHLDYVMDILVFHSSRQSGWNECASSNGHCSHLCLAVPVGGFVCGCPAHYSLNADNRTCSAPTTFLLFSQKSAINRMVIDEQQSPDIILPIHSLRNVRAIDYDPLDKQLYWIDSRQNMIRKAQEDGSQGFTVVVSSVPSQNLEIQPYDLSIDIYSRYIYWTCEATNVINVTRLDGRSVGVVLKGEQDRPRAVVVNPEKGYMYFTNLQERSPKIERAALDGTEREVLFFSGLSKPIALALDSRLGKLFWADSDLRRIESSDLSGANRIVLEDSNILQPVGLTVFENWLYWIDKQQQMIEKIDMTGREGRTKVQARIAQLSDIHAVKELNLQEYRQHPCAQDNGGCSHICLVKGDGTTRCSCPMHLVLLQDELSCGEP
# B1: scFv06475 VH:G34V (scFv, name in Kabat numbering, V domains shown)
# VH: QVQLKESGPALVKPTQTLTLTCTFSGFSLSNRGVGVGWIRQPPGKALEWLAWIDWDDDKSYSTSLKTRLTISKDTSKNQVVLTMTNMDPVDTATYYCARMHLPLVFDSWGQGTLVTVSS
# VL: DIVLTQSPATLSLSPGERATLSCRASQFIGSRYLAWYQQKPGQAPRLLIYGASNRATGVPARFSGSGSGTDFTLTISSLEPEDFATYYCQQYYDYPQTFGQGTKVEIK
# notes: Point mutant of scFv06475 (His tag)
# B2: scFv06475 VH:I37F (scFv, name in Kabat numbering, V domains shown)
# VH: B1 VH with V34G, I39F
# VL: B1 VL
# notes: as for B1
# B3: scFv08168 wild type (scFv, V domains shown)
# VH: QVQLVESGGGLVQPGGSLRLSCAASGFTFSDYVINWVRQAPGKGLEWVSGISWSGVNTHYADSVKGRFTISRDNSKNTLYLQMNSLRAEDTAVYYCARLGATANNIRYKFMDVWGQGTLVTVSS
# VL: DIELTQPPSVSVAPGQTARISCSGDSLRNKVYWYQQKPGQAPVLVIYKNNRPSGIPERFSGSNSGNTATLTISGTQAEDEADYYCQSYDGQKSLVFGGGTKLTVL
# notes: One polypeptide (scFv with His tag); also called MOR08168 scFv wild type
# B4: scFv08168 D1 (VH:I34M + VH:S49A) (scFv, V domains shown)
# VH: B3 VH with I34M, S49A
# VL: B3 VL
# notes: Double mutant of scFv08168 (His tag); also called MOR08168D1 mutant; double mutant D1
# B5: MOR08168 hIgG1LALA (antibody)
# heavy: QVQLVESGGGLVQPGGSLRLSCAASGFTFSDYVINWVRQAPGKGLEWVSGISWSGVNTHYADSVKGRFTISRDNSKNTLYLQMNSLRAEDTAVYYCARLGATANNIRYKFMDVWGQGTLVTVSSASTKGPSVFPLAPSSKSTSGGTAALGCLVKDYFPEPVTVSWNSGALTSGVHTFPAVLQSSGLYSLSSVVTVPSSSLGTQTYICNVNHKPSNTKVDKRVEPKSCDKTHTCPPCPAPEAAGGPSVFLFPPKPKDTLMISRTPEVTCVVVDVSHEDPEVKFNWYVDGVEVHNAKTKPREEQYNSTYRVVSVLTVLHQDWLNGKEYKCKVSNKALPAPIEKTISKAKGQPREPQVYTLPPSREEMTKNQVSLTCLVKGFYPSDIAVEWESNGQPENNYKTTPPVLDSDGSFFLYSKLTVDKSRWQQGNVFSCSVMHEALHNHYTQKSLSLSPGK
# light: DIELTQPPSVSVAPGQTARISCSGDSLRNKVYWYQQKPGQAPVLVIYKNNRPSGIPERFSGSNSGNTATLTISGTQAEDEADYYCQSYDGQKSLVFGGGTKLTVLGQPKAAPSVTLFPPSSEELQANKATLVCLISDFYPGAVTVAWKADSSPVKAGVETTTPSKQSNNKYAASSYLSLTPEQWKSHRSYSCQVTHEGSTVEKTVAPTECS
# notes: Human IgG1 LALA / lambda; also called Propeller 1 IgG (MOR08168); MOR08168 (propeller 1 antibody)
# B6: anti-LRP6 MOR08168hIgG1LALA 6475 scfv (bispecific antibody)
# heavy: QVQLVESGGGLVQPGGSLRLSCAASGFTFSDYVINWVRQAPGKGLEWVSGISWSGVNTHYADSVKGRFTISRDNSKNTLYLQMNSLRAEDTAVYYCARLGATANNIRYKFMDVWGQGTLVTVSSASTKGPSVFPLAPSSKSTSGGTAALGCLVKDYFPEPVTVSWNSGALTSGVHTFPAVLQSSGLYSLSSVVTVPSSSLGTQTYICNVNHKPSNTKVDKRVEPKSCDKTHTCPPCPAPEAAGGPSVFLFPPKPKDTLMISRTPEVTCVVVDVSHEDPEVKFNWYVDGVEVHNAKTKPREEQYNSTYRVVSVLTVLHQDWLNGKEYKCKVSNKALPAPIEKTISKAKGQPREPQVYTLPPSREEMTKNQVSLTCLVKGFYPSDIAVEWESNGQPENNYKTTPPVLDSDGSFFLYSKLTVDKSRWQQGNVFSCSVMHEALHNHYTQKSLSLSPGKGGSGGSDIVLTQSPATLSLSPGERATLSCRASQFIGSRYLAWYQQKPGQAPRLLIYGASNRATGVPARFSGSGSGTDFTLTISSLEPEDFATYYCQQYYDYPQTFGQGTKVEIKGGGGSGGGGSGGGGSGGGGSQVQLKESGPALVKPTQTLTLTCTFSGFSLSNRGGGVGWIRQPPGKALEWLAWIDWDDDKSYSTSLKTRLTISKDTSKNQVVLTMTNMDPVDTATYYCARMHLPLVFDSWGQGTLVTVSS
# light: B5 light
# notes: Biparatopic: MOR08168 IgG1 LALA with MOR06475 scFv (VL-(Gly4Ser)4-VH) fused by a (GlyGlySer)2 linker to the C-terminus of CH3; also called Biparatopic anti-LRP6 IgG scFv
# Assays:
# [1] = target: T1, LRP6-Fc (R&D Systems, catalog No: …); test: ELISA on coated LRP6-Fc, pentaHis-HRP detection
# Method: (§1) Binding EC₅₀ of scFvs against LRP6 protein was measured by ELISA. Maxisorp plate was coated with LRP6-Fc (R&D Systems, catalog No: 1505-LR) at 3 μg/ml at 4° C. overnight. The plate was blocked with 50 μl of 2% BSA for one hour, and washed five times with the wash solution. The samples were diluted with 1% BSA accordingly. The plate was incubated at RT for 1 h, and washed for 3 times. Detection was done by adding 50 μl pentaHis-HRP (Qiagen Mat. No. 1014992) at 1:2000 dilution in 1% BSA, incubated at RT for 1 h, and washed 3 times. 50 μl of substrate reagent A plus B (R&D systems) was added, then incubated for 5-20 min depending on the color. The reaction was stopped by adding 25 μl of the stop solution, followed by plate reading at 450 nm.
# For scFv06475, there were two mutations affecting the activity as detected by ELISA and Proteon kinetics analysis.
# [2] = target: T1, LRP6-Fc (R&D Systems, catalog No: …); test: ELISA on coated LRP6-Fc, detection with pentaHis-HRP
# Method: as §1
# Affinity analysis ELISA EC₅₀ was carried out for both scFv08168 and scFv06475 wild type and variants.
# human LRP6 = human LRP6 (human, UniProt O75581 20-1613); test: cell-based or functional assay
# [3] = target: T1, LRP6-Fc (R&D Systems, catalog No: …); test: Proteon XPR36, scFv captured by anti-His IgG, LRP6-Fc as analyte, bivalent analyte model
# Method: Kinetics experiments were performed using BioRad's Proteon XPR36 biosensor. All experiments were performed at room temperature using PBST (phosphate buffered saline with 0.05% Tween-20) as the running buffer. All of the six vertical channels on a GLM chip were activated for 5 min at a flow rate of 30 μl/min using freshly prepared mixture of EDC (400 mM) and sNHS (100 mM). Anti-His mouse IgG1 (R&D systems, catalog No: MAB050) was diluted to 20 μg/ml in 10 mM sodium acetate, PH 5.0 and coupled to the chip for 5 min along separate vertical channels at a flow rate of 30 μl/min. 1 M ethanolamine was then injected for 5 min at 30 μl/min to deactivate the un-reacted sNHS groups. 2 μg/ml MOR08168 scFv wild type or 2 μg/ml MOR08168D1 mutant was then immobilized on different vertical channels for 15 sec at 100 μl/min followed by two 1 min injection of the running buffer at 30 μl/min in the horizontal direction. The sixth vertical channel was used as the channel reference and no ligand was immobilized on this channel. […] Association was monitored for 5 min and dissociation was monitored for 20 min. Buffer was injected in the sixth channel to serve as a row reference for real time baseline drifting correction. […] Kinetics analysis on the Proteon was performed in Proteon Manager v.2.1.1. […]
# LRP6 PD1/2 = target: T2, LRP6 PD1/2; test: Biacore T-100 SPR, antibody captured by anti-human IgG Fc on a CM4 chip, PD1/2 injected; N = 4
# Method: (§2) The carboxymethyl dextran surface was activated with a 7 min injection of a 1:1 ratio of 0.4 M EDC (1-Ethyl-3-[3-dimethylaminopropyl]carbodiimide hydrochloride) and 0.1 M NHS(N-hydroxysuccinimide). […] PD1/2 and PD3/4 were prepared as two fold concentration series starting at 50 nM, and injected at 30 μl/min for 1 min. […] The surfaces were then regenerated two times with 10 mM glycine (pH 2.2). […] PD3/4 at a saturating concentration of 100 nM was then flowed over the surface at a flow rate of 30 μl/min for 30 min. A saturating concentration of 100 nM PD1/2 was injected immediately after the PD3/4. The dissociation constant (KD), association (kₒₙ), and dissociation (koff) rates were calculated from the baseline subtracted corrected binding curves using the BIAevaluation software (GE Healthcare).
# human FcRn [4] = target: T4, human FcRn (human, UniProt P55899 24-297; P61769 21-119, limits assumed); test: Biacore, pH 6.0; human FcRn at pH 6.0, Biacore; parental IgG, not IgG-scFv
# T4 sequence (P55899 24-297 limits assumed, form in doubt, chain 1 of 2): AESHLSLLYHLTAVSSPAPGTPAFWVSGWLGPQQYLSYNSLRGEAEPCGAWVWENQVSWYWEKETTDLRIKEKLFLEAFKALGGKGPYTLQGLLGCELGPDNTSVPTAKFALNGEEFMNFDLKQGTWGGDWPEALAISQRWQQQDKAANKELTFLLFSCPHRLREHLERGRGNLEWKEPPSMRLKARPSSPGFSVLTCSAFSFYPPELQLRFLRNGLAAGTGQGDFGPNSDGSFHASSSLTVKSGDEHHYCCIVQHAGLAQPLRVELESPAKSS
# T4 sequence (P61769 21-119 limits assumed, form in doubt, chain 2 of 2): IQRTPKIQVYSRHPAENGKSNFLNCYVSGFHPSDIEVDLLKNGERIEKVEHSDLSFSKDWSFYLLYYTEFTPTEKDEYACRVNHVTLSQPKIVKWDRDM
# cynoFcRn = target: T5, cynoFcRn (cynomolgus monkey, UniProt Q8SPV9); test: Biacore, cynoFcRn at pH 6.0
# T5 construct: also called cynomolgus FcRn
# LRP6 PD3/4 = target: T3, LRP6 PD3/4; test: Biacore T-100 SPR, antibody captured by anti-human IgG Fc on a CM4 chip, PD3/4 injected; N = 3
# Method: as §2
# human FcRn [5] = target: T4, human FcRn; test: Biacore, pH 6.0; human FcRn at pH 6.0, Biacore; IgG-scFv format (only low level binding at pH 7.4)
Binder,EC50 [1],EC50 [2],Kd [3],Kd (cynoFcRn),further results
B1,27 nM,27.4 nM,–,–,–
B2,4.3 nM,–,–,–,–
B3,–,2.04 nM,3.82 nM,–,IC50 by STF assay for Wnt1 inhibition (human LRP6): 7.41 nM
B4,–,1.61 nM,2.55 nM,–,–
B5,–,–,–,280 nM,Kd (LRP6 PD1/2): 1.08 nM; koff (LRP6 PD1/2): 9.05e-05 s⁻¹; kon (LRP6 PD1/2): 87200 M⁻¹ s⁻¹; Kd (human FcRn [4]): 23 nM
B6,–,–,–,120 nM,Kd (LRP6 PD3/4): 1.93 nM; koff (LRP6 PD3/4): 0.000314 s⁻¹; kon (LRP6 PD3/4): 211000 M⁻¹ s⁻¹; Kd (human FcRn [5]): 21 nM
